Results: US5232912

Target: bovine thrombin (bovine) (UniProt P00735)

Substance	Fibrin Clot Inhibition
Suc-Tyr-Glu-Azd-Ile-Pro-Glu-Glu-Ala-Cha-D-Glu-OH (peptide)	0.51
Suc-Tyr-Glu-Pip-Ile-Pro-Glu-Glu-Ala-Cha-D-Glu-OH (peptide)	1.9
Suc-Tyr-Glu-Pro-Ile-Azd-Glu-Glu-Ala-Cha-D-Glu-OH (peptide)	0.38
Suc-Tyr-Glu-Pro-Ile-Pip-Glu-Glu-Ala-Cha-D-Glu-OH (peptide)	0.88
Suc-Tyr-Glu-Pro-Ile-Tiq-Glu-Glu-Ala-Cha-D-Glu-OH (peptide)	0.63
Suc-Tyr-Glu-Tiq-Ile-Pro-Glu-Glu-Ala-Cha-D-Glu-OH (peptide)	0.82
